To fix the notation:
B1: Zinc finger MYM-type protein 3, residues 405 to 444; numbered along this chain, Q14202 (parent)
chain: DATRCSICQKTGEVLHEVSNGSVVHRLCSDSCFSKFRANK

± gives the uncertainty stated by the source.

Variants of B1 are the subject of the data set. In words: abundance fitness (aPCA) (normalised: wild type 0, dead -1); higher = more abundant; growth selection in yeast, the domain comes from the species named. The settings on record: Homo sapiens.
Consider DATRCSICQKTGEVLHEVSNGSVVHRLCSDSCFCKFRANK [S34C], for which the abundance fitness is -0.729 ± 0.098. As for DATRCSICQKTGEVLHEVSNGSVVHRLCSDSCFYKFRANK [S34Y], the figure is -1.01 ± 0.24; as for DATRCSICQKTGEVLHEVSNGSVVHRLCSDSCFFKFRANK [S34F], -0.18 ± 0.087; as for DATRCSICQKTGEVLHEVSNGSVVHRLCSDSCFWKFRANK [S34W], -0.187 ± 0.075. As for DATRCSICQKTGEVLHEVSNGSVVHRLCSDSCFPKFRANK [S34P], the figure is -0.114 ± 0.064.

Consider DATRCSICQKTGEVLHEVSNGSVVHRLCSDSCFAKFRANK [S34A], for which the abundance fitness worked out at 0.203 ± 0.056.

Regarding DATRCSICQKTGEVLHEVSNGSVVHRLCSDSCFIKFRANK [S34I], the abundance fitness was -0.126 ± 0.12.

For DATRCSICQKTGEVLHEVSNGSVVHRLCSDSCFTKFRANK [S34T], the abundance fitness came out at 0.125 ± 0.06. As for DATRCSICQKTGEVLHEVSNGSVVHRLCSDSCFKKFRANK [S34K], the figure is 0.206 ± 0.068. In the case of DATRCSICQKTGEVLHEVSNGSVVHRLCSDSCFDKFRANK [S34D] it was 0.203 ± 0.1; in that of DATRCSICQKTGEVLHEVSNGSVVHRLCSDSCFEKFRANK [S34E], 0.32 ± 0.062. Consider DATRCSICQKTGEVLHEVSNGSVVHRLCSDSCFQKFRANK [S34Q], for which the abundance fitness worked out at 0.382 ± 0.083. In the case of DATRCSICQKTGEVLHEVSNGSVVHRLCSDSCFGKFRANK [S34G] it was 0.137 ± 0.053; in that of DATRCSICQKTGEVLHEVSNGSVVHRLCSDSCFMKFRANK [S34M], -0.039 ± 0.17. As for DATRCSICQKTGEVLHEVSNGSVVHRLCSDSCFRKFRANK [S34R], the figure is 0.076 ± 0.054. As for DATRCSICQKTGEVLHEVSNGSVVHRLCSDSCFLKFRANK [S34L], the figure is -0.023 ± 0.061; as for DATRCSICQKTGEVLHEVSNGSVVHRLCSDSCFSKFRAEK [N39E], 0.128 ± 0.076. Consider DATRCSICQKTGEVLHEVSNGSVVHRLCSDSCFSKFRAHK [N39H], for which the abundance fitness was -0.212 ± 0.087. As to DATRCSICQKTGEVLHEVSNGSVVHRLCSDSCFSKFRAAK [N39A], the abundance fitness turned out to be 0.015 ± 0.062. In the case of DATRCSICQKTGEVLHEVSNGSVVHRLCSDSCFSKFRACK [N39C] it was -0.319 ± 0.11; in that of DATRCSICQKTGEVLHEVSNGSVVHRLCSDSCFSKFRAIK [N39I], -0.022 ± 0.089.

As for DATRCSICQKTGEVLHEVSNGSVVHRLCSDSCFSKFRADK [N39D], the abundance fitness is -0.228 ± 0.13. In the case of DATRCSICQKTGEVLHEVSNGSVVHRLCSDSCFSKFRAGK [N39G] it was 0.017 ± 0.058; in that of DATRCSICQKTGEVLHEVSNGSVVHRLCSDSCFSNFRANK [K35N], 0.03 ± 0.34; in that of DATRCSICQKTGEVLHEVSNGSVVHRLCSDSCFSFFRANK [K35F], 0.052 ± 0.19.

Regarding DATRCSICQKTGEVLHEVSNGSVVHRLCSDSCFSPFRANK [K35P], the abundance fitness is -0.471 ± 0.074. Turning to DATRCSICQKTGEVLHEVSNGSVVHRLCSDSCFSAFRANK [K35A], the abundance fitness was 0.119 ± 0.054. As for DATRCSICQKTGEVLHEVSNGSVVHRLCSDSCFSLFRANK [K35L], the figure is -0.127 ± 0.055. In the case of DATRCSICQKTGEVLHEVSNGSVVHRLCSDSCFSWFRANK [K35W] it was -0.84 ± 0.084; in that of DATRCSICQKTGEVLHEVSNGSVVHRLCSDSCFSCFRANK [K35C], -0.959 ± 0.11; in that of DATRCSICQKTGEVLHEVSNGSVVHRLCSDSCFSSFRANK [K35S], 0.02 ± 0.058. In the case of DATRCSICQKTGEVLHEVSNGSVVHRLCSDSCFSMFRANK [K35M] it was 0.078 ± 0.07. Turning to DATRCSICQKTGEVLHEVSNGSVVHRLCSDSCFSYFRANK [K35Y], the abundance fitness was -0.175 ± 0.26. Turning to DATRCSICQKTGEVLHEVSNGSVVHRLCSDSCFSQFRANK [K35Q], the abundance fitness is 0.146 ± 0.067. As for DATRCSICQKTGEVLHEVSNGSVVHRLCSDSCFSTFRANK [K35T], the figure is 0.058 ± 0.066; as for DATRCSICQKTGEVLHEVSNGSVVHRLCSDSCFSHFRANK [K35H], -0.03 ± 0.084.

As to DATRCSICQKTGEVLHEVSNGSVVHRLCSDSCFSEFRANK [K35E], the abundance fitness came to 0.166 ± 0.056. For the variant DATRCSICQKTGEVLHEVSNGSVVHRLCSDSCFSDFRANK [K35D], the abundance fitness is 0.053 ± 0.076. In the case of DATRCSICQKTGEVLHEVSNGSVVHRLCSDSCFSKFRRNK [A38R], the abundance fitness is -0.199 ± 0.052. In the case of DATRCSICQKTGEVLHEVSNGSVVHRLCSDSCFSKFRYNK [A38Y] it was -0.338 ± 0.36; in that of DATRCSICQKTGEVLHEVSNGSVVHRLCSDSCFSKFRDNK [A38D], -0.139 ± 0.076. As for DATRCSICQKTGEVLHEVSNGSVVHRLCSDSCFSKFRHNK [A38H], the figure is -0.524 ± 0.15. As to DATRCSICQKTGEVLHEVSNGSVVHRLCSDSCFSKFRENK [A38E], the abundance fitness turned out to be 0.015 ± 0.059.

In the case of DATRCSICQKTGEVLHEVSNGSVVHRLCSDSCFSKFRSNK [A38S], the abundance fitness is -0.2 ± 0.061. Take DATRCSICQKTGEVLHEVSNGSVVHRLCSDSCFSKFRPNK [A38P]: the abundance fitness is -0.354 ± 0.068. In the case of DATRCSICQKTGEVLHEVSNGSVVHRLCSDSCFSKFRQNK [A38Q] it was -0.072 ± 0.064.

Consider DATRCSICQKTGEVLHEVSNGSVVHRLCSDSCFSKFRMNK [A38M], for which the abundance fitness is -0.033 ± 0.094. In the case of DATRCSICQKTGEVLHEVSNGSVVHRLCSDSCFSKFRNNK [A38N] it was -0.461 ± 0.23. On to DATRCSICQKTGEVLHEVSNGSVVHRLCSDSCFSKFRWNK [A38W], for which the abundance fitness was -0.353 ± 0.059. Consider DATRCSICQKTGEVLHEVSNGSVVHRLCSDSCFSKFRKNK [A38K], for which the abundance fitness was -0.228 ± 0.086. In the case of DATRCSICQKTGEVLHEVSNGSVVHRLCSDSCFSKFRFNK [A38F] it was -0.259 ± 0.16; in that of DATRCSICQKTGEVLHEVSNGSVVHRLCSDSCFSKFRGNK [A38G], 0.011 ± 0.05.

Regarding DATRCSICQKTGEVLHEVSNGSVVHRLCSDSCFSKFRLNK [A38L], the abundance fitness was -0.265 ± 0.078. In the case of DATRCSICQKTGEVLHEVSNGSVVHRLCSDSCFSKFRINK [A38I] it was -0.215 ± 0.079; in that of DATRCSICQKTGEVLHEVSNGSVVHRLCSDSCFSKFRVNK [A38V], -0.233 ± 0.071; in that of DATRCSICQKTGEVLHEVSNGSVVHRLCSDSCLSKFRANK [F33L], 0.256 ± 0.054.

With DATRCSICQKTGEVLHEVSNGSVVHRLCSDSCCSKFRANK [F33C], the abundance fitness was -0.11 ± 0.15. As for DATRCSICQKTGEVLHEVSNGSVVHRLCSDSCHSKFRANK [F33H], the figure is 0.073 ± 0.095; as for DATRCSICQKTGEVLHEVSNGSVVHRLCSDSCWSKFRANK [F33W], 0.154 ± 0.06. As for DATRCSICQKTGEVLHEVSNGSVVHRLCSDSCISKFRANK [F33I], the figure is -0.067 ± 0.11; as for DATRCSICQKTGEVLHEVSNGSVVHRLCSDSCPSKFRANK [F33P], -0.186 ± 0.074; as for DATRCSICQKTGEVLHEVSNGSVVHRLCSDSCSSKFRANK [F33S], -0.015 ± 0.058.

(Values after the Human Domainome abundance scans (Beltran et al. 2025).)
